Values belong to the substance of their own block, whether it stands above or below them.
Columns and labels:
[1] = molecular target: Carbonic anhydrase II (bCAII), from bovine erythrocytes (bovine) (UniProt P00921); test: SPR Biacore T100; bCAII immobilised on CM5
[2] = molecular target: Carbonic anhydrase II (bCAII), from bovine erythrocytes (bovine) (UniProt P00921); test: SPR KD of the biligand against fluorescence polarization KD of the anchor ligand
[3] = molecular target: Carbonic anhydrase II (bCAII), from bovine erythrocytes (bovine) (UniProt P00921); test: SPR Biacore T100; bCAII immobilised on CM5, biligand as analyte 2 nM-5 µM, 1:1 fit
[4] = molecular target: Carbonic anhydrase II (bCAII), from bovine erythrocytes (bovine) (UniProt P00921); test: SPR KD of the biligands against fluorescence polarization KD of the anchor ligand
[5] = molecular target: Carbonic anhydrase II (bCAII), from bovine erythrocytes (bovine) (UniProt P00921); test: dot blot; antigen spotted on nitrocellulose, biotinylated biligand anchor in 0.1% serum, streptavidin-HRP
[6] = molecular target: human carbonic anhydrase II (hCAII) (human) (UniProt P00918); test: as above
[7] = molecular target: Carbonic anhydrase II (bCAII), from bovine erythrocytes (bovine) (UniProt P00921); test: SPR Biacore T100; bCAII immobilised on CM5, branched biligand as analyte 0-1656 nM
[8] = molecular target: Carbonic anhydrase II (bCAII), from bovine erythrocytes (bovine) (UniProt P00921); test: fluorescence polarization; 6 µM FITC-peptide titrated with bCAII 0.2-800 µM in PBS + 3% DMSO
[9] = molecular target: Carbonic anhydrase II (bCAII), from bovine erythrocytes (bovine) (UniProt P00921); test: SPR Biacore T100; bCAII immobilised on CM5, triligand as analyte 0.1-162 nM, 1:1 fit
[10] = molecular target: Carbonic anhydrase II (bCAII), from bovine erythrocytes (bovine) (UniProt P00921); test: SPR KD of the triligand against SPR KD of the biligand
[11] = molecular target: human carbonic anhydrase II (hCAII) (human) (UniProt P00918); test: as above
[12] = molecular target: Carbonic anhydrase II (bCAII), from bovine erythrocytes (bovine) (UniProt P00921); test: SPR
[13] = molecular target: human carbonic anhydrase II (hCAII) (human) (UniProt P00918); test: SPR Biacore T100; hCAII immobilised on CM5, triligand as analyte 0.1-162 nM, 1:1 fit

Chain of Carbonic anhydrase II (bCAII), from bovine erythrocytes (bovine) (P00921 2-260 limits assumed): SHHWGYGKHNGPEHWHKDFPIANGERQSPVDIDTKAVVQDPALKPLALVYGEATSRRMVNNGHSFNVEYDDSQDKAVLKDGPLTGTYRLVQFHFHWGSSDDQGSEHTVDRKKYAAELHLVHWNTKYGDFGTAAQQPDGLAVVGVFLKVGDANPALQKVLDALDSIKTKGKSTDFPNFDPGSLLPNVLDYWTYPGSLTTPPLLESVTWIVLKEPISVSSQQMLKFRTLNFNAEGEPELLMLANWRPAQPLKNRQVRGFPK

- Kd [1]: 1000 nM
- fold improvement of dissociation constant over anchor ligand lklwfk-(D-Pra) [2]: 150 fold
- Kd [3]: 3000 nM
Substance: biligand kwlwGl-Tz1-kfwlkl (peptide)

- Kd [1]: 1000 nM
- Kd [3]: 11000 nM
- fold affinity enhancement over anchor ligand [4]: 150 fold
Substance: biligand lklwfk-Tz1-kiwiG (peptide)

- fold reduction of dot blot sensitivity against the triligand [5]: 10 fold
- fold reduction of dot blot sensitivity against the triligand [6]: 10 fold
Substance: biotinylated biligand anchor Biotin-(EG)5-(D-Pra)-kwlwGl-Tz1-kfwlkl (FIG. 14) (peptide)

- Kd [7]: 500 nM
Substance: branched biligand capture agent vkw(Tz1)fw-kfwlkl (peptide)

- Kd [8]: 500000 nM
Substance: fluoresceinated anchor ligand lklwfk-(D-Pra) (peptide)

- Kd [9]: 64 nM
- fold affinity enhancement over biligand [10]: 50 fold
- fold affinity enhancement over biligand [11]: 50 fold
- Kd [12]: 60 nM
- Kd [13]: 45 nM
Substance: triligand rfviln-Tz2-kwlwGl-Tz1-kfwlkl (peptide)

Source: patent US20100009896A1
